For assay [1], the target named is human NPR1 on HEK293/hNPR1.myc.DDK cells (0 hANP) (human) (UniProt P16066). As to the kind of experiment: cell-based or functional assay.
For assay [2], the target named is hNPR1-mFc:hANP or hNPR1-hFc:hANP complex (human) (UniProt P01160). As to the kind of experiment: SPR, mAb captured, 25C. (SPR reads the build-up and loss of mass on a sensor chip optically.)
The target in assay [3] is hNPR1-mFc:hBNP complex (human) (UniProt P16860). As to the kind of experiment: SPR, mAb captured, 25C.
The target in assay [4] is mfNPR1-mFc (monkey). Put plainly: SPR, mAb captured, 25C.
Assay [5] addresses mfNPR1-mFc:hANP complex (monkey; human) (UniProt P01160). Put plainly: SPR, mAb captured, 25C.
Assay [6] has as its target mfNPR1-mFc:hBNP complex (monkey; human) (UniProt P16860). As to the kind of experiment: SPR, mAb captured, 25C.
The target of assay [7] is hNPR1-mFc:hANP or hNPR1-hFc:hANP complex (human) (UniProt P01160). Put plainly: SPR, mAb captured, 37C.
Assay [8] deals with hNPR1-mFc:hBNP complex (human) (UniProt P16860). As to the kind of experiment: SPR, mAb captured, 37C.
Assay [9] addresses mfNPR1-mFc (monkey). Put plainly: SPR, mAb captured, 37C.
Assay [10] has as its target mfNPR1-mFc:hANP complex (monkey; human) (UniProt P01160). As to the kind of experiment: SPR, mAb captured, 37C.
The target in assay [11] is human NPR1 on HEK293/hNPR1.myc.DDK cells (0 hANP) (human) (UniProt P16066). Put plainly: ECL cell binding (MSD), 0 hANP.
Assay [12] deals with mNPR1-mFc (mouse). Put plainly: SPR Biacore, mAb captured by anti-human Fc, 25C.
Assay [13] concerns the target mNPR1-mFc:hANP complex (mouse; human) (UniProt P01160). As to the kind of experiment: SPR Biacore, mAb captured by anti-human Fc, 25C.
The target in assay [14] is mNPR1-mFc:hBNP complex (mouse; human) (UniProt P16860). As to the kind of experiment: SPR Biacore, mAb captured by anti-human Fc, 25C.
The target of assay [15] is mNPR1-mFc (mouse). As to the kind of experiment: SPR Biacore, mAb captured by anti-human Fc, 37C.
Assay [16] deals with mNPR1-mFc:hANP complex (mouse; human) (UniProt P01160). As to the kind of experiment: SPR Biacore, mAb captured by anti-human Fc, 37C.
Assay [17] has as its target mNPR1-mFc:hBNP complex (mouse; human) (UniProt P16860). Put plainly: SPR Biacore, mAb captured by anti-human Fc, 37C.
Assay [18] has as its target mfNPR1-mFc:hBNP complex (monkey; human) (UniProt P16860). Put plainly: SPR Biacore, mAb captured by anti-human Fc, 37C.

human NPR1 on HEK293/hNPR1.myc.DDK cells (0 hANP) (human), sequence (P16066 33-1061): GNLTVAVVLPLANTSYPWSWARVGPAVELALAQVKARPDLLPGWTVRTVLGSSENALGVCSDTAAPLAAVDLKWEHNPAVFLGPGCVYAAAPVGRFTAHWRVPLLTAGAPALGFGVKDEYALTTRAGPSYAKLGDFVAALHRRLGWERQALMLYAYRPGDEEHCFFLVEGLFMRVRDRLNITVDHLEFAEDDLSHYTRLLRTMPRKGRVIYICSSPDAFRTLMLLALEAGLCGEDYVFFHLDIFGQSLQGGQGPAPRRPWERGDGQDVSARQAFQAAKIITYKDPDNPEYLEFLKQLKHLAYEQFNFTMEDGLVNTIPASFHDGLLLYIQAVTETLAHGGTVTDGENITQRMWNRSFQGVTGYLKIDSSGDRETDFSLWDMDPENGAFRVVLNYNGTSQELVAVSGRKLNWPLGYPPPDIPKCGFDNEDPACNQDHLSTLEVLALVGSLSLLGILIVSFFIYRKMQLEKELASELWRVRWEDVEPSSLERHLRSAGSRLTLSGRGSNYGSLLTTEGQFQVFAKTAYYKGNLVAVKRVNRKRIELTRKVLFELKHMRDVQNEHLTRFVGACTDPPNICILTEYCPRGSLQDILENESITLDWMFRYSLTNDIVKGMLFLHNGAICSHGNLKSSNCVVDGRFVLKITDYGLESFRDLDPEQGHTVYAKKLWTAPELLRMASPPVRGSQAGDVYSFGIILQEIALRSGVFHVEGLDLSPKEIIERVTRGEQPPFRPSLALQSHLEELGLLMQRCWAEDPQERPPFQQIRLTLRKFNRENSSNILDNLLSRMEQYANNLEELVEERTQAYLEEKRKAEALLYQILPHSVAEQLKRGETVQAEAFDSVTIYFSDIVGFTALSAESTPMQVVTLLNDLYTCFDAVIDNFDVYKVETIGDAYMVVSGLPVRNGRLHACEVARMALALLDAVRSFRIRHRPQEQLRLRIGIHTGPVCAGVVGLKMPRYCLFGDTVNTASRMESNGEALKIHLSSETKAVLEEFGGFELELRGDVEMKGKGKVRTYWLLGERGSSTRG
mfNPR1-mFc (monkey), sequence (chain, as listed by the source limits assumed): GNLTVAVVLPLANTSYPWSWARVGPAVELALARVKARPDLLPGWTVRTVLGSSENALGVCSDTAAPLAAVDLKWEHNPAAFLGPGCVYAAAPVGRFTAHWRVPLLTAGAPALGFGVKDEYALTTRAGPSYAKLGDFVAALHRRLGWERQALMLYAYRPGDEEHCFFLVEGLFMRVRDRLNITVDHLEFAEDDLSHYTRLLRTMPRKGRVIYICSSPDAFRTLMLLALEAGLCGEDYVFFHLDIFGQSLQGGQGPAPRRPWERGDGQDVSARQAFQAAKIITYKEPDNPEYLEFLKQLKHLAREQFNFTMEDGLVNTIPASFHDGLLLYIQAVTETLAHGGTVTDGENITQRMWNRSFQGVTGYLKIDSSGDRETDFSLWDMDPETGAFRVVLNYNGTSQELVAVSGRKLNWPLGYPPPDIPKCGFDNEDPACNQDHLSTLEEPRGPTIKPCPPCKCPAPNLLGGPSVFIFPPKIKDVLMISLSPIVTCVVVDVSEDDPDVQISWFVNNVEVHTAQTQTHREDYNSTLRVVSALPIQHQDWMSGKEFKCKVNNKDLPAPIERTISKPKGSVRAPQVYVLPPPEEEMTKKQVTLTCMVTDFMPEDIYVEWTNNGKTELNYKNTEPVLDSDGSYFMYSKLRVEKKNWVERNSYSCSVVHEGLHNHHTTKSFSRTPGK
mNPR1-mFc (mouse), sequence (chain, as listed by the source limits assumed): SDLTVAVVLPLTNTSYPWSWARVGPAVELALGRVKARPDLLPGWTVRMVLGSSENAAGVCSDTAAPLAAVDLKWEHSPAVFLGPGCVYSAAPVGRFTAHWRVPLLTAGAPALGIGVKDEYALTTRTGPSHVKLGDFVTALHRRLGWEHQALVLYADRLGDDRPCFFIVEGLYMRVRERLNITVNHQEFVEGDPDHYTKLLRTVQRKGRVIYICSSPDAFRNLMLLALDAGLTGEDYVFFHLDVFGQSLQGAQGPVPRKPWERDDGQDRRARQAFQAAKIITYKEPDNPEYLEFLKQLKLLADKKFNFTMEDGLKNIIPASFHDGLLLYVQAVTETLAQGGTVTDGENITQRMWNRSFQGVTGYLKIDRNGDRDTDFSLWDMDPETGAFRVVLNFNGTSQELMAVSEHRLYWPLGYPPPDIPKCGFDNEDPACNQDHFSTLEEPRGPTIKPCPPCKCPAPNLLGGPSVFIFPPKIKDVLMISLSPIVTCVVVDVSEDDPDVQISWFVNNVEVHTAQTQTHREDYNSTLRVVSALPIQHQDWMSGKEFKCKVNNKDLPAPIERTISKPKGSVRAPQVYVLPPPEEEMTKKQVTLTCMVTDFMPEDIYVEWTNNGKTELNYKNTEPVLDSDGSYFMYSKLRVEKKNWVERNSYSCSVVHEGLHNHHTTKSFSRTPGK

As to “ANP (from UniProt P01160 124-151) (ligand)”, in [1], the EC50 (pM), ligand ANP, calcium flux activation, Expt II is 78.8 pM.
IgG4 Isotype Control (antibody): the 100 nM Ag Bound (RU) is -12 RU in [2]; -11 RU in [3]; 5 RU in assay [4]; 7 RU in [5]; 7 RU in assay [6]; -18 RU in [7]. Also, the 100 nM Ag Bound (RU) in assay [8] was -17 RU; in assay [9], 8 RU; in assay [10] it was 9 RU; in [12], 0 RU; in assay [13], 1 RU; in [14], 2 RU. Moreover, the 100 nM Ag Bound (RU) in assay [15] was 2 RU; in assay [16], 2 RU; in assay [17] it was 3 RU; in assay [18] it was 9 RU. Further, in assay [1], the % Activation (vs ANP max), Expt 1 was -6.03%. For the same substance, the % Activation (vs. ANP max), Expt II in assay [1] was 1.9%. In addition, the Ratio at 3.7 nM Ab concentration of Cell Binding Signal (RLU) to HEK293/hNPR1.myc.DKK relative to parental HEK293 in [11] came out at 1.

The values above are taken from US20240309103A1.
